{"source": "patent US20220363770A1", "about": "(Amgen, published 2022)", "binders": {"B1": {"name": "iPS:454741 (bispecific antibody, human IgG1, kappa, lambda, N297G)", "light 1": "QSVLTQPPSVSAAPGQKVTISCSGSYSNIGRYSVSWYQQLPGTAPKLLIYDNNKRPSGIPDRFSGSKSGTSATLGITGLQTGDEADYYCGTWDSRLSAVVFGGGTKLTVLGQPKAAPSVTLFPPSSEELQANKATLVCLISDFYPGAVTVAWKADSSPVKAGVETTTPSKQSNNKYAAKSYLSLTPEQWKSHRSYSCQVTHEGSTVEKTVAPTECS", "heavy 1": "QVQLVESGGGVVQPGRSLRLSCAASGFTFSSFGMHWVRQAPGKGLEWVAVISFDGSIKYSVDSVKGRFTISRDNSKNTLFLQMNSLRAEDTAVYYCARDRLNYYESSGYYHYKYYGMAVWGQGTTVTVSSASTKGPSVFPLAPSSKSTSGGTAALGCLVKDYFPEPVTVSWNSGALTSGVHTFPAVLQSSGLYSLESVVTVPSSSLGTQTYICNVNHKPSNTKVDKKVEPKSCDKTHTCPPCPAPELLGGPSVFLFPPKPKDTLMISRTPEVTCVVVDVSHEDPEVKFNWYVDGVEVHNAKTKPCEEQYGSTYRCVSVLTVLHQDWLNGKEYKCKVSNKALPAPIEKTISKAKGQPREPQVYTLPPSRKKMTKNQVSLTCLVKGFYPSDIAVEWESNGQPENNYKTTPPVLKSDGSFFLYSKLTVDKSRWQQGNVFSCSVMHEALHNHYTQKSLSLSPGK", "light 2": "EIVLTQSPATLSLSPGERATLSCRASKSVGQSLHWYQQKPGQAPRLLIKYASQSLSGIPARFSGSGSGTDFTLTISSLEPEDFAVYYCHQSSRLPFTFGPGTKVDIKRTVAAPSVFIFPPSDEQLKSGTASVVCLLNNFYPREAKVQWKVDNALQSGNSQESVTEQDSKDSTYSLESTLTLSKADYEKHKVYACEVTHQGLSSPVTKSFNRGEC", "heavy 2": "not shown"}, "B2": {"name": "iPS:454775 (bispecific antibody, human IgG1, kappa, lambda, N297G)", "light 1": "B1 light 1", "heavy 1": "B1 heavy 1", "light 2": "B1 light 2 with Q31W", "heavy 2": "not shown"}, "B3": {"name": "iPS:454747 (bispecific antibody, human IgG1, kappa, lambda, N297G)", "light 1": "B1 light 1", "heavy 1": "B1 heavy 1", "light 2": "EIVLTQSPATLSLSPGERATLSCRASRAVSNLHWYQQKPGQAPRLLIKYASQSLSGIPARFSGSGSGTDFTLTISSLEPEDFAVYYCHQSSYLPFTFGPGTKVDIKRTVAAPSVFIFPPSDEQLKSGTASVVCLLNNFYPREAKVQWKVDNALQSGNSQESVTEQDSKDSTYSLESTLTLSKADYEKHKVYACEVTHQGLSSPVTKSFNRGEC", "heavy 2": "not shown"}, "B4": {"name": "iPS:454757 (bispecific antibody, human IgG1, kappa, lambda, N297G)", "light 1": "B1 light 1", "heavy 1": "B1 heavy 1", "light 2": "B1 light 2 with Q31R", "heavy 2": "not shown"}, "B5": {"name": "iPS:454767 (bispecific antibody, human IgG1, kappa, lambda, N297G)", "light 1": "B1 light 1", "heavy 1": "B1 heavy 1", "light 2": "B1 light 2 with K27Q, Q31R", "heavy 2": "not shown"}, "B6": {"name": "iPS:454787 (bispecific antibody, human IgG1, kappa, lambda, N297G)", "light 1": "B1 light 1", "heavy 1": "B1 heavy 1", "light 2": "B1 light 2 with Q31W", "heavy 2": "not shown"}, "B7": {"name": "iPS:454751 (bispecific antibody, human IgG1, kappa, lambda, N297G)", "light 1": "B1 light 1", "heavy 1": "B1 heavy 1", "light 2": "B1 light 2 with Q31R", "heavy 2": "not shown"}, "B8": {"name": "iPS:454789 (bispecific antibody, human IgG1, kappa, lambda, N297G)", "light 1": "B1 light 1", "heavy 1": "B1 heavy 1", "light 2": "B1 light 2 with Q31W", "heavy 2": "not shown"}, "B9": {"name": "iPS:454783 (bispecific antibody, human IgG1, kappa, lambda, N297G)", "light 1": "B1 light 1", "heavy 1": "B1 heavy 1", "light 2": "B1 light 2 with Q31W", "heavy 2": "not shown"}, "B10": {"name": "iPS:454753 (bispecific antibody, human IgG1, kappa, lambda, N297G)", "light 1": "B1 light 1", "heavy 1": "B1 heavy 1", "light 2": "B1 light 2 with Q31R", "heavy 2": "not shown"}, "B11": {"name": "iPS:454743 (bispecific antibody, human IgG1, kappa, lambda, N297G)", "light 1": "B1 light 1", "heavy 1": "B1 heavy 1", "light 2": "B1 light 2", "heavy 2": "not shown"}, "B12": {"name": "iPS:454773 (bispecific antibody, human IgG1, kappa, lambda, N297G)", "light 1": "B1 light 1", "heavy 1": "B1 heavy 1", "light 2": "B1 light 2 with S28A, Q31W", "heavy 2": "not shown"}, "B13": {"name": "iPS:454749 (bispecific antibody, human IgG1, kappa, lambda, N297G)", "light 1": "B1 light 1", "heavy 1": "B1 heavy 1", "light 2": "B1 light 2 with Q31R", "heavy 2": "not shown"}, "B14": {"name": "iPS:454771 (bispecific antibody, human IgG1, kappa, lambda, N297G)", "light 1": "B1 light 1", "heavy 1": "B1 heavy 1", "light 2": "B1 light 2 with Q31R", "heavy 2": "not shown"}, "B15": {"name": "iPS:454763 (bispecific antibody, human IgG1, kappa, lambda, N297G)", "light 1": "B1 light 1", "heavy 1": "B1 heavy 1", "light 2": "B1 light 2 with K27Q, Q31R", "heavy 2": "not shown"}, "B16": {"name": "iPS:454759 (bispecific antibody, human IgG1, kappa, lambda, N297G)", "light 1": "B1 light 1", "heavy 1": "B1 heavy 1", "light 2": "B1 light 2 with Q31R", "heavy 2": "not shown"}, "B17": {"name": "iPS:454785 (bispecific antibody, human IgG1, kappa, lambda, N297G)", "light 1": "B1 light 1", "heavy 1": "B1 heavy 1", "light 2": "B1 light 2 with Q31W", "heavy 2": "not shown"}, "B18": {"name": "iPS:454745 (bispecific antibody, human IgG1, kappa, lambda, N297G)", "light 1": "B1 light 1", "heavy 1": "B1 heavy 1", "light 2": "B1 light 2 with S28A, Q31F, R93F", "heavy 2": "not shown"}, "B19": {"name": "iPS:454755 (bispecific antibody, human IgG1, kappa, lambda, N297G)", "light 1": "B1 light 1", "heavy 1": "B1 heavy 1", "light 2": "B1 light 2 with Q31R", "heavy 2": "not shown"}, "B20": {"name": "iPS:454769 (bispecific antibody, human IgG1, kappa, lambda, N297G)", "light 1": "B1 light 1", "heavy 1": "B1 heavy 1", "light 2": "B1 light 2 with Q31R", "heavy 2": "not shown"}, "B21": {"name": "iPS:454761 (bispecific antibody, human IgG1, kappa, lambda, N297G)", "light 1": "B1 light 1", "heavy 1": "B1 heavy 1", "light 2": "B1 light 2 with Q31R", "heavy 2": "not shown"}, "B22": {"name": "iPS:454765 (bispecific antibody, human IgG1, kappa, lambda, N297G)", "light 1": "B1 light 1", "heavy 1": "B1 heavy 1", "light 2": "B1 light 2 with K27Q, Q31R", "heavy 2": "not shown"}}, "note": "Substitutions are numbered along the chain they refer to."}
{"target": "T1, human PAC1 receptor (human, UniProt P41586 24-468)", "T1 sequence": "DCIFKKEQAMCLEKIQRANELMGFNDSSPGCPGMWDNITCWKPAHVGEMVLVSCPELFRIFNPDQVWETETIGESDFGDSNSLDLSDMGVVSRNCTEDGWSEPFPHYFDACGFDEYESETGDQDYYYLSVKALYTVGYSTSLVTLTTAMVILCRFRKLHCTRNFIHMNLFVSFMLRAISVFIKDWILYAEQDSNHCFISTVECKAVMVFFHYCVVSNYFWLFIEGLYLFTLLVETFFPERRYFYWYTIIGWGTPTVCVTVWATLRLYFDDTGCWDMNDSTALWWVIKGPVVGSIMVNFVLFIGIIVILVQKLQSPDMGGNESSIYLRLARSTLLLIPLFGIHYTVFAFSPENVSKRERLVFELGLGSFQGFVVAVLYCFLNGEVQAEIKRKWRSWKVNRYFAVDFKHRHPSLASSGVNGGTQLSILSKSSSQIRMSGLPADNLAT", "test": "cell-based or functional assay", "units": {"Fold-improvement over 29G4v22 Ab": "fold", "IC50": "nM"}}
{"binder": "B1", "Fold-improvement over 29G4v22 Ab": 4.2, "IC50": 1.58}
{"binder": "B2", "Fold-improvement over 29G4v22 Ab": 6.7, "IC50": 0.83}
{"binder": "B3", "Fold-improvement over 29G4v22 Ab": 2, "IC50": 3.09}
{"binder": "B4", "Fold-improvement over 29G4v22 Ab": 9.2, "IC50": 0.68}
{"binder": "B5", "Fold-improvement over 29G4v22 Ab": 9, "IC50": 0.71}
{"binder": "B6", "Fold-improvement over 29G4v22 Ab": 9.5, "IC50": 0.69}
{"binder": "B7", "Fold-improvement over 29G4v22 Ab": 12.2, "IC50": 0.52}
{"binder": "B8", "Fold-improvement over 29G4v22 Ab": 5.5, "IC50": 1.19}
{"binder": "B9", "Fold-improvement over 29G4v22 Ab": 9.1, "IC50": 0.62}
{"binder": "B10", "Fold-improvement over 29G4v22 Ab": 10.4, "IC50": 0.61}
{"binder": "B11", "Fold-improvement over 29G4v22 Ab": 3.8, "IC50": 1.66}
{"binder": "B12", "Fold-improvement over 29G4v22 Ab": 7.7, "IC50": 0.83}
{"binder": "B13", "Fold-improvement over 29G4v22 Ab": 7.5, "IC50": 0.83}
{"binder": "B14", "Fold-improvement over 29G4v22 Ab": 7.6, "IC50": 0.84}
{"binder": "B15", "Fold-improvement over 29G4v22 Ab": 8.5, "IC50": 0.75}
{"binder": "B16", "Fold-improvement over 29G4v22 Ab": 8.5, "IC50": 0.74}
{"binder": "B17", "Fold-improvement over 29G4v22 Ab": 4.6, "IC50": 1.43}
{"binder": "B18", "Fold-improvement over 29G4v22 Ab": 5.2, "IC50": 1.2}
{"binder": "B19", "Fold-improvement over 29G4v22 Ab": 9.2, "IC50": 0.69}
{"binder": "B20", "Fold-improvement over 29G4v22 Ab": 7.2, "IC50": 0.78}
{"binder": "B21", "Fold-improvement over 29G4v22 Ab": 6.4, "IC50": 0.97}
{"binder": "B22", "Fold-improvement over 29G4v22 Ab": 7.8, "IC50": 0.71}
{"target": "human CGRP receptor (human, UniProt Q16602 23-461; O60894 27-148)", "sequence (Q16602 23-461 limits assumed, chain 1 of 2)": "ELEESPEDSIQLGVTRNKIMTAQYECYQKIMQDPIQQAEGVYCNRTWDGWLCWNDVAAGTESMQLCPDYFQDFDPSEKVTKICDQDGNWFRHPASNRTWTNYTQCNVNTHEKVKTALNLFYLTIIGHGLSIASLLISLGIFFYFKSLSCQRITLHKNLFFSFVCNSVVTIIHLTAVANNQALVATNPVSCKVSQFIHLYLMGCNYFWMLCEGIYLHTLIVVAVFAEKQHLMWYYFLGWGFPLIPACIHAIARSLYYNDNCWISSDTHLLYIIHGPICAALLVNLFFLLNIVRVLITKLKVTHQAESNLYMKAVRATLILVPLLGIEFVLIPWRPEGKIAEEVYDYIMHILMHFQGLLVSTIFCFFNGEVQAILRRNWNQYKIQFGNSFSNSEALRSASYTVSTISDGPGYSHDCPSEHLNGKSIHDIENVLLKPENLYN", "sequence (O60894 27-148 limits assumed, chain 2 of 2)": "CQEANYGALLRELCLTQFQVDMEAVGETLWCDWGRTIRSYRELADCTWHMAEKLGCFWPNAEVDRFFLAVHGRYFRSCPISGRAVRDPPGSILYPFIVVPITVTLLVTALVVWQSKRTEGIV", "test": "cell-based or functional assay", "units": {"Fold-improvement over 4E4 Ab": "fold", "IC50": "nM"}}
{"binder": "B1", "Fold-improvement over 4E4 Ab": 0.8, "IC50": 0.64}
{"binder": "B2", "Fold-improvement over 4E4 Ab": 1.4, "IC50": 0.38}
{"binder": "B3", "Fold-improvement over 4E4 Ab": 1.2, "IC50": 0.49}
{"binder": "B4", "Fold-improvement over 4E4 Ab": 1.4, "IC50": 0.43}
{"binder": "B5", "Fold-improvement over 4E4 Ab": 1.2, "IC50": 0.41}
{"binder": "B6", "Fold-improvement over 4E4 Ab": 1.8, "IC50": 0.27}
{"binder": "B7", "Fold-improvement over 4E4 Ab": 1.2, "IC50": 0.43}
{"binder": "B8", "Fold-improvement over 4E4 Ab": 1.7, "IC50": 0.29}
{"binder": "B9", "Fold-improvement over 4E4 Ab": 1.1, "IC50": 0.48}
{"binder": "B10", "Fold-improvement over 4E4 Ab": 1.3, "IC50": 0.37}
{"binder": "B11", "Fold-improvement over 4E4 Ab": 1.1, "IC50": 0.52}
{"binder": "B12", "Fold-improvement over 4E4 Ab": 0.9, "IC50": 0.57}
{"binder": "B13", "Fold-improvement over 4E4 Ab": 1.4, "IC50": 0.41}
{"binder": "B14", "Fold-improvement over 4E4 Ab": 1.4, "IC50": 0.37}
{"binder": "B15", "Fold-improvement over 4E4 Ab": 1.5, "IC50": 0.32}
{"binder": "B16", "Fold-improvement over 4E4 Ab": 1.5, "IC50": 0.39}
{"binder": "B17", "Fold-improvement over 4E4 Ab": 1.1, "IC50": 0.47}
{"binder": "B18", "Fold-improvement over 4E4 Ab": 1.3, "IC50": 0.46}
{"binder": "B19", "Fold-improvement over 4E4 Ab": 1.8, "IC50": 0.27}
{"binder": "B20", "Fold-improvement over 4E4 Ab": 1.7, "IC50": 0.32}
{"binder": "B21", "Fold-improvement over 4E4 Ab": 1.4, "IC50": 0.42}
{"binder": "B22", "Fold-improvement over 4E4 Ab": 1.6, "IC50": 0.34}
